Target: P4-FAM, N-terminally fluorescein-labelled P4 peptide (Streptococcus cristatus)
Experiment: MST

Substance	Kd [µM]
RagAB from P. gingivalis ATCC 33277 (complex)	0.2
RagAB complex purified from wild-type P. gingivalis W83, 8xHis-tag on the C terminus of RagB	2
